Target: T1, mouse ICAM-1 expressed on activated mouse endothelial cells (mouse, UniProt P13597 28-537)
T1 construct: whole, on cells
Test: FITC-labeled γ3 carriers on activated endothelial cells, fluorescence microscopy, 1 h 37 C
Description: Binding of FITC-labeled γ3 carriers to activated HUVEC cells (bars) vs ICAM-1-negative 293 cells (dotted line) was quantified by fluorescence microscopy after 1 h incubation at 37° C., in the absence or presence of excess γ3, anti-ICAM, or γ3 scramble peptide. The γ3 carriers bound to native ICAM-1 expressed by both activated human and mouse endothelial cells, but not control 293 cells which are known to be voided of ICAM-1 expression (FIG. 5C).

T1 sequence (P13597 28-537): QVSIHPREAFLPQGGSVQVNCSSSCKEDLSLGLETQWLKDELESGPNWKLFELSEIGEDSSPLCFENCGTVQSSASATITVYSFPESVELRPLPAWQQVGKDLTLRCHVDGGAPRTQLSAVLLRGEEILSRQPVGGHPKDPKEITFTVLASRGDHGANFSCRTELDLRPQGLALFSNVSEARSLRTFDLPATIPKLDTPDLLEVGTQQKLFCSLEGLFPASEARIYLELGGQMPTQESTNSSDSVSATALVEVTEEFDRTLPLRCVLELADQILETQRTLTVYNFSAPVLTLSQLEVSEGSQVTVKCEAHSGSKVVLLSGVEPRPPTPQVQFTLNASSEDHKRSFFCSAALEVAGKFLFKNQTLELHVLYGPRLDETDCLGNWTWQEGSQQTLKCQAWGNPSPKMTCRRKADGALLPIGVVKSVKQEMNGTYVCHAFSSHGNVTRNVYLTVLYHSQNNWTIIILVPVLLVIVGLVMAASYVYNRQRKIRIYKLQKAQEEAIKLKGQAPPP

binding result: binds
Binder: NNQKIVNLKEKVAQLEA (also called γ3 peptide; γ3 carriers) [ICAM-1 affinity peptide γ3, a 17-mer polypeptide derived from fibrinogen]

From patent US20130004490A1 (UNITED STATES OF AMERICA AS REPRESENTED BY THE SECRETARY …, published 2013)
